Test results taken from publication doi:10.1101/2023.02.27.530324.
Values joined by “and” are separate entries in the source; they are usually repeats but may differ in a detail not shown here. Identical values can stand only once.

Assays:
[1] = target: Enhygromyxa salina luciferase LuxA (Enhygromyxa salina); assay: SAXS
[2] = target: Enhygromyxa salina luciferase LuxA (Enhygromyxa salina); assay: SEC-MALS

## Enhygromyxa salina luciferase LuxA (enzyme)
[1]
  percent of the protein as dimers: 82%
  percent of the protein as tetramers: 18%
  stoichiometry N: 2 and 4
[2]
  stoichiometry N: 2 and 4
